Assay results published in patent USRE47150 (Bayer, dated 2018).
Where a chain is given by its changes, count along the chain named. Names may count otherwise.

T1: human tissue factor pathway inhibitor (TFPI) (human, UniProt P10646 29-304, limits assumed)
T1 construct: bought; also called hTFPI; human TFPI
T1 sequence (looked up): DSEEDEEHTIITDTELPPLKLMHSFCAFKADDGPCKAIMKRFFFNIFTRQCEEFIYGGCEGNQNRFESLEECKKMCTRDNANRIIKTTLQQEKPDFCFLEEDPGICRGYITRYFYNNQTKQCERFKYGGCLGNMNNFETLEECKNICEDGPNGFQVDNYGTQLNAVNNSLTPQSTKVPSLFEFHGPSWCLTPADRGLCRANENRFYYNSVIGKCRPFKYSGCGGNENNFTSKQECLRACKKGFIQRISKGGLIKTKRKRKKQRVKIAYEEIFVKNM

T2: mouse tissue factor pathway inhibitor (TFPI) (mouse, UniProt O54819 29-289, limits assumed)
T2 construct: bought; also called mTFPI; murine TFPI
T2 sequence (looked up): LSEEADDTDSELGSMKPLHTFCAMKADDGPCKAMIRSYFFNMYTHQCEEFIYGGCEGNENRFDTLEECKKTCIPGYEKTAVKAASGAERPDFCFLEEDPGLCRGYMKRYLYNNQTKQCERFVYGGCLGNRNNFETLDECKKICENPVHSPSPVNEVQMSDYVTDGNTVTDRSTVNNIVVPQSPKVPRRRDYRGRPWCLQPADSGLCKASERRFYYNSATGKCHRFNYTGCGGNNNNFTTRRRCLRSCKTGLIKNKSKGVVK

B1: 4B7 HC N32D+D62R+H107M+Y112D/LC F31M+S32R+D33R+N35T (Fab, V domains shown)
VH: QVQLQQSGPGLVKPSQTLSLTCAISGDSVSSDSAAWSWIRQSPGRGLEWLGIIYKRSKWYNRYAVSVKSRITINPDTSKNQFSLQLNSVTPEDTAVYYCARWHSDKMWGFDDWGQGTLVTVSS
VL: DIVMTQSPLSLPVTPGEPASISCRSSQSLVMRRGTTYLNWYLQKPGQSPQLLIYKGSNRASGVPDRFSGSGSGTDFTLKISRVEAEDVGVYYCQQYDSYPLTFGQGTKVEIKR
B2: 4B7 HC N32D+D62R+Y112D/LC S32R+D33F+N35I+L42Q+D97T (Fab, V domains shown)
VH: B1 VH with M107H
VL: B1 VL with M31F, R33F, T35I, L42Q, D97T
B3: 4B7 HC N32D+D62R+Y112D/LC M4I+S32R+D33F+N35I+D97T (Fab, V domains shown)
VH: B1 VH with M107H
VL: B1 VL with M4I, M31F, R33F, T35I, D97T
B4: 4B7 HC N32D+D62R+H107M+Y112D/LC S32R+N35T (Fab, V domains shown)
VH: B1 VH
VL: B1 VL with M31F, R33D
B5: 4B7 HC N32D+D62R+Y112D/LC S32R+D33F+N35I+G56V+D97T (Fab, V domains shown)
VH: B1 VH with M107H
VL: B1 VL with M31F, R33F, T35I, G56V, D97T
B6: 4B7 HC N32D+D62R+Y112D/LC S32R+D33F+N35I+N39D+D97T (Fab, V domains shown)
VH: B1 VH with M107H
VL: B1 VL with M31F, R33F, T35I, N39D, D97T
B7: 4B7 HC N32D+D62R+Y112D/LC F31I+D33F+N35I+D97T (Fab, V domains shown)
VH: B1 VH with M107H
VL: B1 VL with M31I, R32S, R33F, T35I, D97T
B8: 4B7 HC N32D+D62R+Y112D/LC S32R+D33F+N35I+K44R+D97T (Fab, V domains shown)
VH: B1 VH with M107H
VL: B1 VL with M31F, R33F, T35I, K44R, D97T
B9: 4B7 HC N32D+D62R+Y112D/LC S32R+D33F+N35I+T36N+D97T (Fab, V domains shown)
VH: B1 VH with M107H
VL: B1 VL with M31F, R33F, T35I, T36N, D97T
B10: 4B7 HC N32D+I53T+D62R+Y112D/LC S32R+D33F+N35I+D97T (Fab, V domains shown)
VH: B1 VH with I53T, M107H
VL: B1 VL with M31F, R33F, T35I, D97T
B11: 4B7 HC N32D+D62R+Y112D/LC S32R+D33F+N35I+D97T+S98H (Fab, V domains shown)
VH: B1 VH with M107H
VL: B1 VL with M31F, R33F, T35I, D97T, S98H
B12: 4B7 HC N32D+D62S+H107M+Y112D/LC S32R+D33R+N35T (Fab, V domains shown)
VH: B1 VH with R62S
VL: B1 VL with M31F
B13: 4B7 HC N32D+D62R+H107M+Y112D/LC S32R+D33F+N35T (Fab, V domains shown)
VH: B1 VH
VL: B1 VL with M31F, R33F
B14: 4B7 HC N32D+D62R+Y112D/LC V30L+S32R+N35I+T36N (Fab, V domains shown)
VH: B1 VH with M107H
VL: B1 VL with V30L, M31F, R33D, T35I, T36N
B15: 4B7 HC N32D+S37N+D62R+Y112D/LC S32R+D33F+N35I+D97T (Fab, V domains shown)
VH: B1 VH with S37N, M107H
VL: B1 VL with M31F, R33F, T35I, D97T
B16: 4B7 HC N32D+I53T+D62Q+Y112D/LC F31I+D33F+N35I (Fab, V domains shown)
VH: B1 VH with I53T, R62Q, M107H
VL: B1 VL with M31I, R32S, R33F, T35I
B17: 4B7 HC Q1E+N32D+G44S+K55Y+D62R+Y112D/LC S32R+D33F+N35I+D97T (Fab, V domains shown)
VH: B1 VH with Q1E, G44S, K55Y, M107H
VL: B1 VL with M31F, R33F, T35I, D97T
B18: 4B7 HC N32D+K55Y+D62Q+Y112D/LC F31I+D33F+N35I (Fab, V domains shown)
VH: B1 VH with K55Y, R62Q, M107H
VL: B1 VL with M31I, R32S, R33F, T35I
B19: 4B7 HC N32D+D62R+H107M/LC S32R+D33R+N35I (Fab, V domains shown)
VH: B1 VH with D112Y
VL: B1 VL with M31F, T35I
B20: 4B7 HC N32D+D62R+Y112D/LC S32R+D33F+N35I+Q50R+D97T (Fab, V domains shown)
VH: B1 VH with M107H
VL: B1 VL with M31F, R33F, T35I, Q50R, D97T
B21: 4B7 HC N32D+D62R+Y112D/LC V30L+S32R+D33F+N35I+T36N+D97T (Fab, V domains shown)
VH: B1 VH with M107H
VL: B1 VL with V30L, M31F, R33F, T35I, T36N, D97T
B22: 4B7 HC N32D+D62R+Y112D/LC F31M+S32R+D33R+N35I (Fab, V domains shown)
VH: B1 VH with M107H
VL: B1 VL with T35I
B23: 4B7 HC N32D+D62R+Y112D/LC S32R+D33F+N35I+A60D+D97T (Fab, V domains shown)
VH: B1 VH with M107H
VL: B1 VL with M31F, R33F, T35I, A60D, D97T
B24: 4B7 HC Q1E+N32D+D62R+Y112D/LC S32R+D33F+N35I+D97T (Fab, V domains shown)
VH: B1 VH with Q1E, M107H
VL: B1 VL with M31F, R33F, T35I, D97T
B25: 4B7 HC N32D+D62R+Y112D/LC D33F+N35I+D97T (Fab, V domains shown)
VH: B1 VH with M107H
VL: B1 VL with M31F, R32S, R33F, T35I, D97T
B26: 4B7 HC N32D+D62R+Y112D/LC D33R+N35I (Fab, V domains shown)
VH: B1 VH with M107H
VL: B1 VL with M31F, R32S, T35I
B27: 4B7 HC N32D+K55Y+D62R+Y112D/LC S32R+D33F+N35I+D97T (Fab, V domains shown)
VH: B1 VH with K55Y, M107H
VL: B1 VL with M31F, R33F, T35I, D97T
B28: 4B7 HC Q1E+N32D+G44S+K55Y+D62R+Y112D/LC V30L+S32R+D33F+N35I+T36N+D97T (Fab, V domains shown)
VH: B1 VH with Q1E, G44S, K55Y, M107H
VL: B1 VL with V30L, M31F, R33F, T35I, T36N, D97T
B29: 4B7 HC N32D+G44S+D62R+Y112D/LC S32R+D33F+N35I+D97T (Fab, V domains shown)
VH: B1 VH with G44S, M107H
VL: B1 VL with M31F, R33F, T35I, D97T
B30: 4B7 HC N32D+D62R+H107M+Y112D/LC S32R+N35T+D97T (Fab, V domains shown)
VH: B1 VH
VL: B1 VL with M31F, R33D, D97T
B31: 4B7 HC N32D+D62R+Y112D/LC M4L+S32R+D33F+N35I+D97T (Fab, V domains shown)
VH: B1 VH with M107H
VL: B1 VL with M4L, M31F, R33F, T35I, D97T
B32: 4B7 HC N32D+D62R+Y112D/LC F31H+S32R+D33F+N35I+D97T (Fab, V domains shown)
VH: B1 VH with M107H
VL: B1 VL with M31H, R33F, T35I, D97T
B33: 4B7 HC N32D+D62R+Y112D/LC V30L+S32R+D33F+N35I+D97T (Fab, V domains shown)
VH: B1 VH with M107H
VL: B1 VL with V30L, M31F, R33F, T35I, D97T
B34: 4B7 HC N32D+D62R+Y112D/LC S32R+D33R (Fab, V domains shown)
VH: B1 VH with M107H
VL: B1 VL with M31F, T35N
B35: 4B7 HC N32D+D62R+Y112D/LC S32R+D33F+N35I+L51R+D97T (Fab, V domains shown)
VH: B1 VH with M107H
VL: B1 VL with M31F, R33F, T35I, L51R, D97T
B36: 4B7 HC N32D+D62R+Y112D/LC S32R+D33F+N35I+K55L+D97T (Fab, V domains shown)
VH: B1 VH with M107H
VL: B1 VL with M31F, R33F, T35I, K55L, D97T
B37: 4B7 HC N32D+D62R+Y112D/LC F31Y+S32R+D33F+N35I+D97T (Fab, V domains shown)
VH: B1 VH with M107H
VL: B1 VL with M31Y, R33F, T35I, D97T

Biological target: T1, human tissue factor pathway inhibitor …
Assay: competitive ELISA

variant/HC_D62R [ratio]	Binder
17	B1
26.9	B2
19.3	B3
25.3	B4
12.1	B5
1.3	B6
23.3	B7
26	B8
25.2	B9
19.6	B10
17.9	B11
19.6	B12
29.2	B13
25	B14
1.9	B15
5.7	B16
26.3	B17
25.6	B18
12.9	B19

variant/HC_D62R [ratio]	Binder
25.9	B20
23.9	B21
15.8	B22
19.1	B23
26.7	B24
25.5	B25
22.9	B26
25.6	B27
20.4	B28
26.5	B29
27.7	B30
21.3	B31
22.1	B32
26.1	B33
14.8	B34
11.2	B35
7.8	B36
27.9	B37

Biological target: T2, mouse tissue factor pathway inhibitor …
Assay: competitive ELISA

variant/HC_D62R [ratio]	binding result	Binder
18.7	–	B1
43	–	B2
12	–	B3
29.3	–	B4
–	no binding	B5
–	no binding	B6
11.9	–	B7
40.1	–	B8
35.4	–	B9
8.3	–	B10
7.1	–	B11
20.3	–	B12
44.1	–	B13
7	–	B14
–	no binding	B15
–	no binding	B16
45.1	–	B17
26.2	–	B18
16.1	–	B19

variant/HC_D62R [ratio]	binding result	Binder
39.4	–	B20
28.4	–	B21
11.2	–	B22
14.3	–	B23
39.8	–	B24
15.9	–	B25
19.5	–	B26
42.8	–	B27
29.4	–	B28
41.5	–	B29
15.8	–	B30
23.9	–	B31
15.2	–	B32
42.2	–	B33
7.2	–	B34
5.2	–	B35
–	no binding	B36
39.7	–	B37
